According to US7255859:

Experiments:
[1] = target: epitope … (98-106) of the haemagglutinin of the human influenza virus (human influenza virus); assay: rounded affinity in the description; antigen not given
[2] = target: Bio-N-HA (biotinoyl-ε-Aca-…-amide) (human influenza virus); assay: SPR (BIACORE), biotinylated peptide on streptavidin chip, antibody in solution
[3] = target: Bio-C-HA (acetyl-… (ε-biotinoyl)-amide) (human influenza virus); assay: as above
[4] = target: Glutathione-S-transferase modified with the HA epitope (GST-HA) (human influenza virus); assay: Western blot, 4 ng GST-HA per lane, primary antibody titrated; chemiluminescence
[5] = target: Green-fluorescent protein modified with the HA epitope (GFP-HA) (human influenza virus) [GFP: P42212]; assay: immunoprecipitation of 50 ng GFP-HA with protein G, then Western blot
[6] = target: Glutathione-S-transferase modified with the HA epitope (GST-HA) (human influenza virus); assay: Western blot of serially diluted GST-HA; 0.1 µg/ml 3F10 against 1 µg/ml 12CA5; chemiluminescence
[7] = target: Glutathione-S-transferase modified with the HA epitope (GST-HA) (human influenza virus); assay: Western blot of serially diluted GST-HA with antibody-peroxidase conjugate (20 mU/ml); chemiluminescence
[8] = target: Glutathione-S-transferase modified with the HA epitope (GST-HA) (human influenza virus); assay: Western blot of serially diluted GST-HA with antibody-peroxidase conjugate (100 ng/ml); chemiluminescence

Substance | Ka [1] [M⁻¹] | Ka [2] [M⁻¹] | koff [2] [s⁻¹] | kon [2] [M⁻¹ s⁻¹] | Ka [3] [M⁻¹] | koff [3] [s⁻¹] | kon [3] [M⁻¹ s⁻¹] | antibody concentration at which the antibody becomes the limiting factor [4] [ng/mL] | fold higher affinity than 12CA5 and BabCo [1] [fold] | antibody concentration at signal saturation [4] [ng/mL] | fold lower antibody concentration for comparable signals against clone 12CA5 [4] [fold] | fold lower antibody quantity to precipitate the antigen against clone 12CA5 [5] [fold] | fold lower detectable amount of GST-HA against clone 12CA5 [6] [fold] | amount still detected [7] [pg GST-HA] | detection limit [8] [ng GST-HA]
anti-HA BabCo (antibody) | 1e+07 | 2.3e+07 | 0.0005 | 12000 | 9.3e+06 | 0.001 | 9500 | – | – | – | – | – | – | – | –
mAB 12CA5 (antibody) | 1e+08 | 2.6e+08 | 0.00021 | 53000 | 9.2e+07 | 0.00026 | 23000 | < 2000 | – | – | – | – | – | – | –
mAB R 3F10 (antibody) | 1e+10 | 6.8e+09 | 9.1e-05 | 620000 | 1.2e+10 | 4.8e-05 | 590000 | – | 30 | 125 | 20 | < 20 | 30 | – | –
peroxidase conjugate of the clone 3F10 (antibody) | – | – | – | – | – | – | – | – | – | – | – | – | – | 40 | –
peroxidase conjugate of the clone 12CA5 (antibody) | – | – | – | – | – | – | – | – | – | – | – | – | – | – | 1
